{"source": "patent US11981714B2", "about": "“CCR5 and CD4 siRNA-targeted phospholipid nanosomes therapeutics for treatment of HIV-1 and other diseases” (priority 2020, dated 2024)", "molecules": {"B1": {"name": "RANTES: CC chemokine, molecular weight 7,900, natural ligand of CCR5; unencapsulated in Table 13 (protein, UniProt P13501 24-91, looked up)", "C-C motif chemokine 5": "SPYSSDTTPCCFAYIARPLPRAHIKEYFYTSGKCSNPAVVFVTRKNRQVCANPEKKWVREYINSLEMS"}}, "system": "HIV-1 RF, NIH Cat #2804", "test": "Infectivity assay by BFUs on MAGI P4/R5 cells with and without lipofectamine (RNA-I-61)", "format": "cell-based", "settings": "naked (unencapsulated), Presence of Lipofectamine", "method": "A knockdown study (RNA-I-61) of the 8 nanoencapsulated and the corresponding unencapsulated (naked) siRNA preparations along with two controls described in the previous experiments was performed using freshly reconstituted materials with HIV-1 RF, NIH Cat #2804, diluted to contain ˜100 Blue Focus forming Units (BFUs) per dose of inoculum. […] The objective of this experiment was to test a range of concentrations of the inhibitors to determine the ID50 for each preparation based on the siRNA content. Since the nanosomal materials were freshly reconstituted, they were recharacterized.\nThe reconstituted samples as well as the naked siRNA preparations were tested for virus infection inhibitory activity. The inhibition of infectivity was measured by counting the number of blue foci due to the induced β-galactosidase activity in the host MAGI P4/R5 cells by the infecting HIV. […] The number of BFUs for each treatment at various dilutions were used to calculate the % inhibition from the corresponding dilution for the Negative_siRNA samples. The inhibitor activity was also quantified by measuring the p24 antigen concentration in each of the wells.\nInfectivity Assay by BFUs: The percent inhibitions obtained with various Nanosomal_siRNA formulations versus Negative_siRNA formulations in the presence of lipofectamine are listed in Table 12.\n50% Inhibitory Dose (ID50) Values: The data from RNA quantification using gel analysis and the infectivity results were used to plot dose response curves and calculate the ID50 (a.k.a. Inhibitory Concentration that results in 50% inhibition, [IC50]) values.", "data": [{"molecule": "B1", "values": [{"measurement": "Inhibition of BFUs by Naked_siRNA vs Negative_siRNA", "setting": "Treatment Dilution 1", "result": 0, "unit": "%"}, {"measurement": "Inhibition of BFUs by Naked_siRNA vs Negative_siRNA", "setting": "Treatment Dilution 5", "result": 34, "unit": "%"}, {"measurement": "Inhibition of BFUs by Naked_siRNA vs Negative_siRNA", "setting": "Treatment Dilution 15", "result": 18, "unit": "%"}, {"measurement": "Inhibition of BFUs by Naked_siRNA vs Negative_siRNA", "setting": "Treatment Dilution 45", "result": 0, "unit": "%"}, {"measurement": "Inhibition of BFUs by Naked_siRNA vs Negative_siRNA", "setting": "Treatment Dilution 135", "result": 0, "unit": "%"}]}]}
